The results in this text go back to US20200095615A1.

For series [1], the system named is T1, wild type Penicillium oxalicum glucoamylase.
T1 sequence: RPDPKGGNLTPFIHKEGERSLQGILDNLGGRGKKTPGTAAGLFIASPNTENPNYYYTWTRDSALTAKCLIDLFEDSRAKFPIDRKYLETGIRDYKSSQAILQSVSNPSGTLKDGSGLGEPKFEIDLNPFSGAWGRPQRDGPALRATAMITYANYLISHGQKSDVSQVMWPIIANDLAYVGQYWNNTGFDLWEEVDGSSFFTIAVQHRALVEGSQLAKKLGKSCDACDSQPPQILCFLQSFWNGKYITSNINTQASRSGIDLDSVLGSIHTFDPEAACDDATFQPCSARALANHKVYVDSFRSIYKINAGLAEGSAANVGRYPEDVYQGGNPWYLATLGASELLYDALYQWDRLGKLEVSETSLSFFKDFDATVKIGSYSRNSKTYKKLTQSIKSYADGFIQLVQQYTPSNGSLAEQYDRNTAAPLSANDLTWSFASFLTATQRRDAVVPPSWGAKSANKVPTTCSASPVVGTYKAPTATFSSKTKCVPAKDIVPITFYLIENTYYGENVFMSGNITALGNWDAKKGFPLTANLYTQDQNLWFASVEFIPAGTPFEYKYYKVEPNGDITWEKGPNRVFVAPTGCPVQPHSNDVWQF

The target in series [2] is Glucoamylase PE001: variant of the Penicillium oxalicum glucoamylase having a K79V substitution (Penicillium oxalicum). Description: cell-based or functional assay.
The target in series [3] is wild type Penicillium oxalicum glucoamylase (Penicillium oxalicum). Description: cell-based or functional assay.

As to aorsin, in series [1], the “cleaved glucoamylase (ca. 60 kDa), SDS-PAGE after protease treatment overnight at 4 °C” value amounted to 60% and the “cleaved glucoamylase (ca. 60 kDa), SDS-PAGE after protease treatment overnight at 32 °C” value came out at 90%.
Consider aorsin (enzyme), for which the intact glucoamylase (ca. 70 kDa), SDS-PAGE after protease treatment overnight at 4 °C in series [2] came out at 100%; in series [3] it was 40%. Also, the intact glucoamylase (ca. 70 kDa), SDS-PAGE after protease treatment overnight at 32 °C worked out at 100% in series [2] and 10% in series [3].
For aspergillopepsin I, the “cleaved glucoamylase (ca. 60 kDa), SDS-PAGE after protease treatment overnight at 32 °C” value in series [1] was 10%.
In series [2], aspergillopepsin I (enzyme) displayed an intact glucoamylase (ca. 70 kDa), SDS-PAGE after protease treatment overnight at 4 °C of 100% and an intact glucoamylase (ca. 70 kDa), SDS-PAGE after protease treatment overnight at 32 °C of 100%. In series [3], this substance returned an intact glucoamylase (ca. 70 kDa), SDS-PAGE after protease treatment overnight at 4 °C of 100% and an intact glucoamylase (ca. 70 kDa), SDS-PAGE after protease treatment overnight at 32 °C of 90%.
